The values below come from article PMC2064082 (The Journal of Cell Biology, 2007).

One test deals with T1, Ple E12–24 (M546–E1128) (rat, UniProt P30427 546-1128).
T1 sequence (looked up): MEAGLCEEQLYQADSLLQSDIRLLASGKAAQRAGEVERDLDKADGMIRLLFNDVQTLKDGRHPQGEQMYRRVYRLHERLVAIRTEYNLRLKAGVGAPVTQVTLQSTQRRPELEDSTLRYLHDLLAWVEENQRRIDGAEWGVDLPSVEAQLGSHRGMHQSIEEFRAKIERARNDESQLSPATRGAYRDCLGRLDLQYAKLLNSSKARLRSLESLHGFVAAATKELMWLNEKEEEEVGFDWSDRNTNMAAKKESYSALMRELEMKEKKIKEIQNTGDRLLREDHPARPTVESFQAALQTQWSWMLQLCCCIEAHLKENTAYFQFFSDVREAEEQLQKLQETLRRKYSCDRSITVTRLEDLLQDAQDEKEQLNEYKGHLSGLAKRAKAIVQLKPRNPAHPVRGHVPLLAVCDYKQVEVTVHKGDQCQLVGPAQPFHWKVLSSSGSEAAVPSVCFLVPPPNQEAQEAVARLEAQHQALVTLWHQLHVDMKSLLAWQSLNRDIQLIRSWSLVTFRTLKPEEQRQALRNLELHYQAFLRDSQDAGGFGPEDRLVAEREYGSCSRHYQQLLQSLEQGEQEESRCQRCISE
The experiment in a line: far-Western, overlay or dot blot.

The target in a further test is T2, Ple R4–C (L3850–A4687) (rat, UniProt P30427 3850-4687).
T2 sequence (looked up): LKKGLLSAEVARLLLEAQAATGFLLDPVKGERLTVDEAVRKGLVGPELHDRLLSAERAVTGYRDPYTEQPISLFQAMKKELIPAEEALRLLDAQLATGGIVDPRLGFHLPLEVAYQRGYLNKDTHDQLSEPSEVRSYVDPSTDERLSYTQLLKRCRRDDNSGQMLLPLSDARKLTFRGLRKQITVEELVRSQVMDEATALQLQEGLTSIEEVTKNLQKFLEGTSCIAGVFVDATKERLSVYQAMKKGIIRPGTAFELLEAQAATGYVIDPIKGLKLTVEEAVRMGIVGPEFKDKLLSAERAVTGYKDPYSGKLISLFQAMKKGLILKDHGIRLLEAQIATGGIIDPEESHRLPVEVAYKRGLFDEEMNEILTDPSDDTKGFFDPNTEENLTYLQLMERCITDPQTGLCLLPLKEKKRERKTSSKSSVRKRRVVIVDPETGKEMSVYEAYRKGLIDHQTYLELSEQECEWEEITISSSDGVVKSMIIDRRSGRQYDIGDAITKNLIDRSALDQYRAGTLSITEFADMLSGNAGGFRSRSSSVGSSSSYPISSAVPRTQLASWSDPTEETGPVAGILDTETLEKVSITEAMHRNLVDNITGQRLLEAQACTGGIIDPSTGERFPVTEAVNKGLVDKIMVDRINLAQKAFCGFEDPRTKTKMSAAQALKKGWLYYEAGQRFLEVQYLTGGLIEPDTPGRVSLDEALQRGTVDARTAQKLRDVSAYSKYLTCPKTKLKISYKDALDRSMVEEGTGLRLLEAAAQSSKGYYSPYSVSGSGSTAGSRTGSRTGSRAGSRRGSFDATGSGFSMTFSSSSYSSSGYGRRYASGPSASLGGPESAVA
Description: far-Western, overlay or dot blot.

Test [1] addresses T3, Dys WW-ZZ, WW-ZZ domain (A3041–M3356) of human dystrophin (human, UniProt P11532 3041-3356).
T3 sequence (looked up): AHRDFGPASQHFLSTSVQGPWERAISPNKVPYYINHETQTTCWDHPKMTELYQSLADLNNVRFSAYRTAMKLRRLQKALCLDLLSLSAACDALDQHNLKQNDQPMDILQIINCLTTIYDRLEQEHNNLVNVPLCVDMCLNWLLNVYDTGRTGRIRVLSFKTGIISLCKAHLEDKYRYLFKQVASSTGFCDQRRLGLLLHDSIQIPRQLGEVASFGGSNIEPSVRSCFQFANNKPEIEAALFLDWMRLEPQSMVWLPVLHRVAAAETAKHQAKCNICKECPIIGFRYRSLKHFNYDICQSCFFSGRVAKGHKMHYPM
Description: far-Western, overlay or dot blot.

The next test has as its target T4, Utr WW-ZZ (A2798–M3113) (human, UniProt P46939 2798-3113).
T4 sequence (looked up): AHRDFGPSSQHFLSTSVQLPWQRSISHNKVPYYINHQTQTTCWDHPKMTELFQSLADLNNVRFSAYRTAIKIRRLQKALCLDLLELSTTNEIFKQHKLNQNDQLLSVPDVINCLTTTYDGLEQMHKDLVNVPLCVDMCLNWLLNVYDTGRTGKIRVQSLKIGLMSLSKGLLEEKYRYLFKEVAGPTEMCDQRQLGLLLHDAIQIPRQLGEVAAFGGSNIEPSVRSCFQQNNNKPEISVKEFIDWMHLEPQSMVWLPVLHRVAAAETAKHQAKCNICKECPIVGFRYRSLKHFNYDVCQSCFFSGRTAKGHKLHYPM
Description: microtiter plate-binding assay.

B1: βDGcyt (L765–P895), cytoplasmic domain of human β-dystroglycan (domain or fragment, UniProt Q14118 765-895, looked up)
chain: LIAGIIAMICYRKKRKGKLTLEDQATFIKKGVPIIFADELDDSKPPPSSSMPLILQEEKAPLPPPEYPNQSVPETTPLNQDTMGEYTPLRDEDPNAPPYQPPPPFTAPMEGKGSRPKNMTPYRSPPPYVPP
Turning to B1, the binding result (with Ple E12–24 (M546–E1128); in the test with Ple R4–C (L3850–A4687); in test [1]) was “binds” each time.

B2: Eu3+-labeled version of the full-length cytoplasmic domain of βDG (βDGcyt) (domain or fragment, human, UniProt Q14118 765-895, looked up)
chain: LIAGIIAMICYRKKRKGKLTLEDQATFIKKGVPIIFADELDDSKPPPSSSMPLILQEEKAPLPPPEYPNQSVPETTPLNQDTMGEYTPLRDEDPNAPPYQPPPPFTAPMEGKGSRPKNMTPYRSPPPYVPP
modifications: Eu3+ label
Turning to B2, in the test with Utr WW-ZZ (A2798–M3113), the binding result is recorded as “binds”.

B3: βDGcytΔDBS (L765–D857), β-dystroglycan cytoplasmic fragment lacking the dystrophin-binding site (domain or fragment, human, UniProt Q14118 765-857, looked up)
chain: LIAGIIAMICYRKKRKGKLTLEDQATFIKKGVPIIFADELDDSKPPPSSSMPLILQEEKAPLPPPEYPNQSVPETTPLNQDTMGEYTPLRDED
On to B3, for which, in the test with Ple E12–24 (M546–E1128), the binding result is “binds”.
